Non-standard residues stand in square brackets, D forms with d. d(pT) = C[C@H](OP(=O)(O)O)[C@@H](N)C(=O)O
T1: Impα3 (Homo sapiens, UniProt O00629)
T1 construct: Human importin α3 isoform (residues 1–521); made in house
T1 sequence (O00629 1-521): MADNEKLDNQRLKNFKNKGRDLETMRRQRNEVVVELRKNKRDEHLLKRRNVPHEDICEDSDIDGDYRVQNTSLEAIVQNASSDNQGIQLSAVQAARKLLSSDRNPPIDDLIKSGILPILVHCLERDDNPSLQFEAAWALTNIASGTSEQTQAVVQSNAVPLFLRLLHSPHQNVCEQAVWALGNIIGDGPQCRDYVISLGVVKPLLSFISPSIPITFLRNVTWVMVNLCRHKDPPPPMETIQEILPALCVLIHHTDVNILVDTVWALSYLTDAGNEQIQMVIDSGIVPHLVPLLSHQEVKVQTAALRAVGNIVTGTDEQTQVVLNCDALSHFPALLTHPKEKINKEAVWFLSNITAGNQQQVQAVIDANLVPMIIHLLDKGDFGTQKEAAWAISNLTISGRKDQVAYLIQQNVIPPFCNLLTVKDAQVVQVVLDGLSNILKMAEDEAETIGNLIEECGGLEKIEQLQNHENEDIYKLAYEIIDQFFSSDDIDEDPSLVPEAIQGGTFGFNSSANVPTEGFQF

T2: ∆Impα3 (Homo sapiens, UniProt O00629)
T2 construct: IBB-depleted species of Impα3 (residues 64–521 of the intact protein); made in house
T2 sequence (O00629 64-521): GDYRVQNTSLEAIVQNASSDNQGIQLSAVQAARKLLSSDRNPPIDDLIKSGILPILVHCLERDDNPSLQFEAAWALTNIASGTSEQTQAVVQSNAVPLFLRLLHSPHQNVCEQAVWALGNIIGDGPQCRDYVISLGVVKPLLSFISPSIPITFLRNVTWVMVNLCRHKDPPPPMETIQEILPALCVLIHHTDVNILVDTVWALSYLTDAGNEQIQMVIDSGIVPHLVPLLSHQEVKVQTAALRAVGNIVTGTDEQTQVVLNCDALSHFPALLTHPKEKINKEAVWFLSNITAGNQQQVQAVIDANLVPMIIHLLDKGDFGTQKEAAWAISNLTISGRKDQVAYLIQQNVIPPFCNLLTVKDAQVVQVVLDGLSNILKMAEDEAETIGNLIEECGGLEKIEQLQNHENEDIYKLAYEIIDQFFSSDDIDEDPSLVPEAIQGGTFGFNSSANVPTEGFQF

T3: Human importin α3 isoform (residues 1–521) (human, UniProt O00629 1-521)
T3 construct: human importin α3 (Impα3, KPNA4), residues 1-521, intact protein with the N-terminal IBB domain; The materials list Ni2+-resin, ampicillin and IPTG, so expression in E. coli is surmised; also called Impα3; KPNA4
T3 sequence (looked up): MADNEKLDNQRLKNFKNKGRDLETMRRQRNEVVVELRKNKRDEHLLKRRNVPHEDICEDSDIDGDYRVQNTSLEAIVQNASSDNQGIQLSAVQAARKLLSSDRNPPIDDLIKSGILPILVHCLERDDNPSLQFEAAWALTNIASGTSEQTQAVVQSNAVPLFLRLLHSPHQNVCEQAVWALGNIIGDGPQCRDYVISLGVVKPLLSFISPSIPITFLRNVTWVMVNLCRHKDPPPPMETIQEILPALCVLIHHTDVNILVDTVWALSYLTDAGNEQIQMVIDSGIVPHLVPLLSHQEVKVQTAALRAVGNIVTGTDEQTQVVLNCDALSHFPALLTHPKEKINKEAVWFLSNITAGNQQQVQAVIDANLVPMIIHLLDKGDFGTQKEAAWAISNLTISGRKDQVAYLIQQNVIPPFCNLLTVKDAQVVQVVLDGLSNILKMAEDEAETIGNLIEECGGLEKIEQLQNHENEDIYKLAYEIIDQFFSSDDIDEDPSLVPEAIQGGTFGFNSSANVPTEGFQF

T4: IBB-depleted species of Impα3 (residues 64–521 of the intact protein) (human, UniProt O00629 64-521)
T4 construct: PDB 5XZX was used only as the model of ∆Impα3 for docking; its limits may differ from 64-521; also called ΔImpα3; truncated importin species
T4 sequence (looked up): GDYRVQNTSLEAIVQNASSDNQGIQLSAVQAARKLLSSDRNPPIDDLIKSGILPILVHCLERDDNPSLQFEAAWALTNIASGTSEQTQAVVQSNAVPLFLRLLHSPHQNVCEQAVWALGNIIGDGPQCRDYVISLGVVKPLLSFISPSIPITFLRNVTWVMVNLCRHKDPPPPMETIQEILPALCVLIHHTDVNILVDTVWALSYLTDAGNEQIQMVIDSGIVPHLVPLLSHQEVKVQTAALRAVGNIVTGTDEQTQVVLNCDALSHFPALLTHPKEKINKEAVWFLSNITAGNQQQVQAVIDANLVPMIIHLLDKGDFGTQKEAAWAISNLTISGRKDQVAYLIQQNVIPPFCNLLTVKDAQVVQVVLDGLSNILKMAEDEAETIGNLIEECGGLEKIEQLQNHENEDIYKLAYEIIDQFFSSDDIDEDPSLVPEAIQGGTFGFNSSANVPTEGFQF


Tests used:
Impα3 = biological target: T1, Impα3; assay: Biolayer interferometry (BLI) binding to Impα3; details: BLItz, Impα3 immobilized via His-tag (0.25 μM), peptide 1–10 μM, 10 × kinetics buffer, 25 °C, error from pseudo-first order fit, at least two repeats
Description: (§1) The association (kon) and dissociation (koff) rate constants of the binding of D-NLS peptides to either Impα3 or ∆Impα3 were determined by using a BLItz system (ForteBio, Pall, Barcelona, Spain). The buffer used in the experiments was that recommended by the manufacturer. […] The peptide concentrations were in a range from 1 to 10 μM during the association step. The general scheme of the protein association/dissociation reactions in the BLItz system for the D-NLS peptides was as follows: 30 s of initial baseline acquisition with the 10 × kinetics buffer (provided by the manufacturer); 120 s of loading either Impα3 and ∆Impα3 into the biosensor; 30 s of baseline acquisition with the 10 × kinetics buffer; 120 s of association of each peptide to the biosensor (which had been previously loaded with the importin species); and 120 s of monitoring of the dissociation of each peptide from the biosensor. All experiments were carried out at 25 °C.
(§2) Fittings of the BLI sensorgrams was carried out by using KaleidaGraph, as previously described. The interferometry response during the association step, R(t) (measured in response units, RU), and the binding rate, dR(t)/dt, could be used to evaluate the kinetics of the formation of the complex between Impα3/∆Impα3 and each D-NLS, according to:(2) dR/dt=konD-NLSRmax−Rt−koffR(t) where Rmax is proportional to the total concentration of biosensor-bound importin species; and [D-NLS] represents the concentration of the corresponding D-NLS peptide.
(§3) In Equation (2), R(t) is given by:(3) Rt= Req−Reqe^(−kobs t−t0) where Req is the steady-state (or equilibrium) response obtained at infinite time, when dR(t)/dt = 0, and t0 = 180 s is the time at which the association step between biosensor-immobilized Impα3/∆Impα3 and D-NLS in the solution started. We fitted the experimentally obtained R(t) under any condition as:(4) Rt= Req−Reqe^−kobs t−t0−R’eq(t−t0) where R^′eq was included to consider the lineal drift observed at longer times.
(§4) The dissociation process was always fitted to a single exponential, with R(t) given by:(6) Rt=R1 e^(−kofft−t0)−R^″eq(t−t0) where t0 = 300 is the time at which the dissociation of the D-NLS from the biosensor-bound Impα3/∆Impα3 started in our experimental set-up, R1 is the response level when dissociation starts, and the parameter R^″eq considers the linear drift observed at longer times.
(§5) The experiments were repeated at least twice for each peptide with each importin species.

[1] = Translational diffusion NMR (DOSY) of NLS peptides; assay type: physicochemical; details: ~100 μM peptide
Text: For the four peptides, we measured the experimental value of D for dioxane ranging from (1.2 ± 0.1) × 10^−5 to (1.05 ± 0.02) × 10^−5 cm^2 s^−1 in each solution containing the corresponding peptide; we assumed a hydrodynamic radius of 2.12 Å for dioxane (Table 1) under any condition. […] Furthermore, the values of D were similar for the D- and L-peptides, and the latter were already being described as disordered. Thus, we can conclude that the four D-peptides were monomeric and disordered, like the L-form counterparts, and, then, there was no difference in the hydrodynamic properties of the peptides by changing the enantiomeric nature of the residues.
The NMR spectra were acquired at 10 °C on a Bruker Avance III spectrometer (Bruker GmbH, Mannheim, Germany), equipped with a triple-resonance probe and z-pulse field gradients. All NMR experiments with D-NLS peptides were carried out in 50 mM deuterated Tris buffer (not corrected for isotope effects), pH 7.2. Spectra were calibrated with TSP, by considering pH-dependent changes in its chemical shifts; probe temperature was calibrated with pure methanol.
The typical D-NLS peptide concentrations in DOSY experiments were ~100 μM, and 128 scans were acquired, in which the gradient strength was varied linearly in sixteen steps, between 2 and 95% of the total power of the gradient coil. Measurements of the translational self-diffusion coefficient, D, were performed with the pulsed-gradient spin-echo sequence in the presence of 100% D2O. Details on the experimental conditions and fitting of the resulting curves have been described elsewhere. Gradient strength was calibrated by using the value of D for the residual proton water signal in a sample containing 100% D2O, in a 5 mm tube [23]. Gradient length was 2.5 ms; the time between the two pulse gradients in the sequence was 250 ms; and the recovery delay between the bipolar gradients was 100 μs. The signals from methyl groups between 0.8 and 1.0 ppm were used for peak integration, for all the D-NLS peptides. A final concentration of 1% of dioxane, which was assumed to have a hydrodynamic radius Rh of 2.12 Å [23], was added to the solution of each peptide.

∆Impα3 = biological target: T2, ∆Impα3; assay: Biolayer interferometry (BLI) binding to ∆Impα3; details: BLItz, ∆Impα3 immobilized via His-tag (0.25 μM), peptide 1–10 μM, 10 × kinetics buffer, 25 °C, error from pseudo-first order fit, at least two repeats
Description: as §1, §2, §3, §4, §5

[2] = biological target: T3, Human importin α3 isoform (residues …); assay: BLI; His-tagged Impα3 or ∆Impα3 immobilised on His-tag biosensors at 0.25 μM; peptides 1 to 10 μM; BLItz system, manufacturer's 10x kinetics buffer; 25 °C; kon and koff from pseudo-first-order plots; apparent Kd = koff/kon, two-state process assumed; details: both partners purified
[3] = biological target: T4, IBB-depleted species of Impα3 (residues …); assay: as above; details: both partners purified

Molecule	kon (Impα3) [M⁻¹ s⁻¹]	Hydrodynamic radius Rh ([1]; D-peptides, by comparison with D of dioxane (1%, Rh 2.12 Å), 50 mM deuterated Tris pH 7.2, 10 °C) [Å]	Diffusion coefficient D ([1]; 50 mM deuterated Tris pH 7.2, 100% D2O, 10 °C) [cm^2 s^−1 × 10^6]	kon (∆Impα3) [M⁻¹ s⁻¹]	kon [2] [M⁻¹ s⁻¹]	kon [3] [M⁻¹ s⁻¹]	Kd [2] [µM]	koff [2] [s⁻¹]	Kd [3] [µM]	koff [3] [s⁻¹]
YT^54NRPSPGGHERKLVTKLQNSE^74 [D-NLS-NUPR1, D-enantiomeric, isolated NLS region of NUPR1 (residues 54–74 of the intact protein)]	50000 ± 10000	9 ± 1	1.78 ± 0.08	110000 ± 20000						
Ac-[dY][dT][dN][dR][dP][dS][dP]GG[dH][dE][dR][dK][dL][dV][dT][dK][dL][dQ][dN][dS][dE]-NH2 (NLS region of NUPR1 (nuclear protein 1), residues 54-74 of the intact protein, made of D-amino acids; also called D-NLS-NUPR1; wild-type D-NLS-NUPR1; source: synthetic peptide (Genscript, purity higher than 95%)) [D-enantiomeric, isolated NLS region of NUPR1 (residues 54–74 of the intact protein)]					50000	110000				
Ac-[dY][dT][dN][dR][dP][dS][dP]GG[dH][dE][dR][dK][dL][dV][d(pT)][dK][dL][dQ][dN][dS][dE]-NH2 (SMILES CC(=O)N[C@H](Cc1ccc(O)cc1)C(=O)N[C@@H](C(=O)N[C@H](CC(N)=O)C(=O)N[C@H](CCCNC(=N)N)C(=O)N1CCC[C@@H]1C(=O)N[C@H](CO)C(=O)N1CCC[C@@H]1C(=O)NCC(=O)NCC(=O)N[C@H](Cc1c[nH]cn1)C(=O)N[C@H](CCC(=O)O)C(=O)N[C@H](CCCNC(=N)N)C(=O)N[C@H](CCCCN)C(=O)N[C@H](CC(C)C)C(=O)N[C@@H](C(=O)N[C@@H](C(=O)N[C@H](CCCCN)C(=O)N[C@H](CC(C)C)C(=O)N[C@H](CCC(N)=O)C(=O)N[C@H](CC(N)=O)C(=O)N[C@H](CO)C(=O)N[C@H](CCC(=O)O)C(N)=O)[C@H](C)OP(=O)(O)O)C(C)C)[C@H](C)O, NLS region of NUPR1 (nuclear protein 1), residues 54-74 of the intact protein, made of D-amino acids, Thr68 phosphorylated; Mirror-image (all-D) peptide; also called D-NLS-NUPR1phospho; source: synthetic peptide (Genscript, purity higher than 95%)) [D-enantiomeric, isolated NLS region of NUPR1 with phosphorylated Thr68]					10000	6000	13	0.13	8	0.05

— article PMC12386367, “Importin α3 Is Tolerant to Nuclear Localization Signal Chirality” (International Journal of Molecular Sciences, 2025)
